{"source": "patent US20100184652A1", "about": "(NEW YORK BLOOD CENTER, published 2010)", "binders": {"B1": {"name": "pY213 peptide (14-residue Abi1 peptide containing phosphorylated tyrosine 213) (peptide)", "peptide": "VKPPTVPND[pY]MTSP", "modifications": "also: biotinylated (site not given here)", "notes": "Biotinylated and coupled to a streptavidin chip in SPR; also called phosphopeptide pY213"}, "B2": {"name": "GST fusion polypeptide of Abi1 N1-187 (other)", "chain": "MAELQMLLEEEIPSGKRALIESYQNLTRVADYCENNYIQATDKRKALEETKAYTTQSLASVAYQINALANNVLQLLDIQASQLRRMESSINHISQTVDIHKEKVARREIGILTTNKNTSRTHKIIAPANMERPVRYIRKPIDYTVLDDVGHGVKWLKAKHGNNQPARTGTLSRTNPPTQKPPSPPMS", "notes": "not shown: glutathione S-transferase (GST) from pGEX-2T"}, "B3": {"name": "GST fusion polypeptide of Abi1 N1-172 (other)", "chain": "MAELQMLLEEEIPSGKRALIESYQNLTRVADYCENNYIQATDKRKALEETKAYTTQSLASVAYQINALANNVLQLLDIQASQLRRMESSINHISQTVDIHKEKVARREIGILTTNKNTSRTHKIIAPANMERPVRYIRKPIDYTVLDDVGHGVKWLKAKHGNNQPARTGTLS", "notes": "as for B2"}}, "key": {"GST protein alone": {"target": "T1, GST protein alone (UniProt P08515 1-218 = GST)", "T1 construct": "Control analyte in SPR; also called glutathione S-transferase", "T1 sequence (P08515 whole entry, the tested form may be a part)": "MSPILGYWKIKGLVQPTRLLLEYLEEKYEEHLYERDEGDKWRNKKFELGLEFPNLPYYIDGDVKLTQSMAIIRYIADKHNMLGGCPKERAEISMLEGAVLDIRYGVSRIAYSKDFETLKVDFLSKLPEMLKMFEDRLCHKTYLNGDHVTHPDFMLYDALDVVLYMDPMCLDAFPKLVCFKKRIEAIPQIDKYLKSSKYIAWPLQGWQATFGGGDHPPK", "assay": "SPR (Biacore 3000), peptide-coupled chip", "method": "The top photograph was incubated with a biotinylated GST-Abl-SH3 domain (GST-Abl-SH3-B). No binding to biotinylated GST (GST-B) was observed (middle panel). […] Panels B-D show binding to the c-Abl SH2 domain. […] No binding to the GST protein alone was observed (not shown). RU, response unit.\nSurface Plasmon Resonance Assay. Surface plasmon resonance assay was performed using a Biacore 3000 instrument (BlAcore Inc., Piscataway, N.J.). Biotinylated 14-residue peptides, pY213 or Y213, were coupled to surface of streptavidin-coated (SA) biosensor chip (BIAcore Inc., Piscataway, N.J.). Binding reactions were done in HBS-EP buffer, containing 10 mM HEPES, pH 7.4, 150 mM NaCl, 3 mM EDTA, and 0.05% (v/v) surfactant P20. The surface was regenerated before each new injection using 50 mM NaOH and 1M NaCl. The Biacore instrument was programmed to perform a series of binding assays with increasing concentrations of GST Abl SH2 polypeptide over the same regenerated surface. Sensograms (plots of changes in response unit on the surface as a function of time) derived were analyzed using the software BIAeval 3.0."}, "biotinylated GST": {"target": "T2, biotinylated GST (UniProt P08515 1-218 = GST, biotinylated (sites not given))", "T2 construct": "also called GST-B", "T2 sequence (P08515 whole entry, the tested form may be a part)": "as above", "assay": "blot overlay with biotinylated GST", "method": "FIG. 2 is graphs and photographs of western blots showing the identification of the minimal binding region of c-Abl SH3 and SH2 domains in the N-terminus of Abi1. […] Recombinant GST fusion polypeptides containing the N-terminal terminal region of Abi1/Hsshb3p1 were separated on SDS polyacrylamide gels and transferred onto a nitrocellulose membrane. […] The top photograph was incubated with a biotinylated GST-Abl-SH3 domain (GST-Abl-SH3-B). No binding to biotinylated GST (GST-B) was observed (middle panel). […] Panels B-D show binding to the c-Abl SH2 domain. […] No binding to the GST protein alone was observed (not shown). RU, response unit."}}, "note": "Where no end group is shown, it is not given here. [ ]: non-standard residue; d: D form. pY = N[C@@H](Cc1ccc(OP(=O)(O)O)cc1)C(=O)O", "data": [{"binder": "B1", "values": [{"measurement": "binding result", "setting": "GST protein alone", "value": "no binding"}]}, {"binder": "B2", "values": [{"measurement": "binding result", "setting": "biotinylated GST", "value": "no binding"}]}, {"binder": "B3", "values": [{"measurement": "binding result", "setting": "biotinylated GST", "value": "no binding"}]}]}
